Earlier results in publication PMC6201748.

Molecular target: ZipA (Escherichia coli) (UniProt P77173)
Assay: SPR

Sequence of FtsZ (P0A9A6 whole entry): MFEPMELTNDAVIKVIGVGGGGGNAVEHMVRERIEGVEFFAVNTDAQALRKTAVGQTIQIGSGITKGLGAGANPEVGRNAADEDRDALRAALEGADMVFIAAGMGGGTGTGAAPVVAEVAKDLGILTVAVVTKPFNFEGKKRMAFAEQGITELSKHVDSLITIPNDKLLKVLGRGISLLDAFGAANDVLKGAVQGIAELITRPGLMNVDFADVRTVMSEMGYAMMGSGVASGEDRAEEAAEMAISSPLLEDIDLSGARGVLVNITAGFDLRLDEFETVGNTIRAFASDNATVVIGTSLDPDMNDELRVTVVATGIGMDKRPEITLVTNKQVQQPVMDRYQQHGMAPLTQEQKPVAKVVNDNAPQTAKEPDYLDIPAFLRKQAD

In the case of FtsZ (from UniProt P0A9A6), the Kd is given as 7 µM.
